According to paper PMC9895041, “Molecular evolutionary insight of structural zinc atom in yeast xylitol dehydrogenases and its application in bioethanol production by lignocellulosic biomass” (Scientific Reports, 2023):

Experiments:
purified protein = substrate: OC[C@@H](O)[C@H](O)[C@@H](O)CO; assay: purified protein; conditions: 1-10 mM xylitol, 1.5 mM NAD+, 50 mM Tris-HCl pH 8.0, 30 °C
[1] = target: the molecule itself; assay: SEC; gel filtration of the sample purified by Ni-NTA (HiLoad 16/600 Superdex 200 pg, 20 mM Tris-HCl pH 8.0, 150 mM NaCl)
[2] = target: the molecule itself; assay: SEC; analytical size-exclusion chromatography of PsXDHC4 in solution

B1: SpXDH wild type (xylitol dehydrogenase, SPBC1773.05c protein from Schizosaccharomyces pombe) (enzyme, UniProt P36624 1-360, looked up)
chain: MAPAEKAFVLRKKMDTAIEDRPGQTLTDDHQVKVAIKATGICGSDVHYWKEGGIGDFILKKPMILGHESAGVVVEVGKGVSSLKPGDPVAVEPGCVCRLCDYCRSGRYNLCPHMEFAATPPYDGTLRTYYITTEDFCTKLPKQISVEEGALFEPMSVAVHAMTRGNLKCGSRVLVMGCGTVGLLMMAVAKAYGAIDIVAVDASPSRVEFAQKYVGAKPFTPIAAKENESLPDYAQRYKQAIIEKYGEFDFAVDATGVGICIHTAVLALKRGGTFVQAGNGKPVIDFPINHIINYEINVLGSFRYAHGCYKQSLFLVSNGLVDVKPLITHRFAFKDALKAYETVASGEEGVLKVIIGGPDA
notes: cloned into pQE-81L; also called SpXDHWT; WT; source: E. coli DH5α, purified (Ni-NTA)
Km (purified protein): 6.10 ± 0.34 mM
kcat (purified protein): 6.95 s⁻¹
kcat/Km (purified protein): 1140 M⁻¹ s⁻¹
stoichiometry N [1]: 4

B2: PsXDHC4 mutant (xylitol dehydrogenase from Pichia stipitis, S96C/S99C/Y102C) (enzyme)
chain: TANPSLVLNKIDDISFETYDAPEISEPTDVLVQVKKTGICGSDIHFYAHGRIGNFVLTKPMVLGHESAGTVVQVGKGVTSLKVGDNVAIEPGIPCRFCDECKSGHYNLCPHMAFAATPNSKEGEPNPPGTLCKYFKSPEDFLVKLPDHVSLELGALVEPLSVGVHASKLGSVAFGDYVAVFGAGPVGLLAAAVAKTFGAKGVIVVDIFDNKLKMAKDIGAATHTFNSKTGGSEELIKAFGGNVPNVVLECTGAEPCIKLGVDAIAPGGRFVQVGNAAGPVSFPITVFAMKELTLFGSFRYGFNDYKTAVGIFDTNYQNGRENAPIDFEQLITHRYKFKDAIEAYDLVRAGKGAVKCLIDGPE
notes: xylitol dehydrogenase (XDH) of Pichia stipitis (Scheffersomyces stipitis), encoded by the PICST_86924 gene, cloned into pQE-81L; the model holds Thr2-Pro362 (Ser121-Gly124 not built); source: E. coli DH5α, purified (Ni-NTA, Superdex 200)
stoichiometry N [2]: 4
